No end group written: not given here.
Assays:
Assay in all cases: Kinase Profiling Assay
Assay type in all cases: biochemical
Settings in all cases: peptide 100 μM
PKG1α(h) = target: T1, PKG1α(h) (Homo sapiens, UniProt Q13976)
T1 sequence (Q13976 1-671): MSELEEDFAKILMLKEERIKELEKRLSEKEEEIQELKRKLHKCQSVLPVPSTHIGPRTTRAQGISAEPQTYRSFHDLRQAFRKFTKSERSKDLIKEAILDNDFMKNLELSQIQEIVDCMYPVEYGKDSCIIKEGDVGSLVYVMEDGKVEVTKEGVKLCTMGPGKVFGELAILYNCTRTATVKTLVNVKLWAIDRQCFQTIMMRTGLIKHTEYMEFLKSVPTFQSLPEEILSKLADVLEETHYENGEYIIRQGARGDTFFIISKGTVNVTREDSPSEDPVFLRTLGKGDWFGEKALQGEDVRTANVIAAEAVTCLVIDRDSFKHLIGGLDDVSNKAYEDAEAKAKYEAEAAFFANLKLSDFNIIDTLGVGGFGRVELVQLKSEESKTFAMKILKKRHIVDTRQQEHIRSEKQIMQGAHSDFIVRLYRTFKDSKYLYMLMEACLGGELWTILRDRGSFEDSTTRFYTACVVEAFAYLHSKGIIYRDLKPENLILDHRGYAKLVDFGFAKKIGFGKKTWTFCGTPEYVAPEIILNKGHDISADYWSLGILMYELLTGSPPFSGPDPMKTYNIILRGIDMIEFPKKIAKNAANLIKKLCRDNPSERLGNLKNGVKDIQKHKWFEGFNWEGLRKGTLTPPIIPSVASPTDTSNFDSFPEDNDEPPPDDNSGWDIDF
How it was run: (§1)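 Activity remaining relative to an uninhibited control was determined by scintillation counting of labeled substrate bound to a negatively charged filter. Radiolabeled phosphate came from ATP; the substrate carried positive charge. Duplicate measurements, within a 266-kinase human panel.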

CDK5/p25(h) = CDK5/p25(h) (Homo sapiens, UniProt Q00535)
How it was run: as §1

EphB4(h) = target: T2, EphB4(h) (Homo sapiens, UniProt P54760)
T2 sequence (P54760 16-987): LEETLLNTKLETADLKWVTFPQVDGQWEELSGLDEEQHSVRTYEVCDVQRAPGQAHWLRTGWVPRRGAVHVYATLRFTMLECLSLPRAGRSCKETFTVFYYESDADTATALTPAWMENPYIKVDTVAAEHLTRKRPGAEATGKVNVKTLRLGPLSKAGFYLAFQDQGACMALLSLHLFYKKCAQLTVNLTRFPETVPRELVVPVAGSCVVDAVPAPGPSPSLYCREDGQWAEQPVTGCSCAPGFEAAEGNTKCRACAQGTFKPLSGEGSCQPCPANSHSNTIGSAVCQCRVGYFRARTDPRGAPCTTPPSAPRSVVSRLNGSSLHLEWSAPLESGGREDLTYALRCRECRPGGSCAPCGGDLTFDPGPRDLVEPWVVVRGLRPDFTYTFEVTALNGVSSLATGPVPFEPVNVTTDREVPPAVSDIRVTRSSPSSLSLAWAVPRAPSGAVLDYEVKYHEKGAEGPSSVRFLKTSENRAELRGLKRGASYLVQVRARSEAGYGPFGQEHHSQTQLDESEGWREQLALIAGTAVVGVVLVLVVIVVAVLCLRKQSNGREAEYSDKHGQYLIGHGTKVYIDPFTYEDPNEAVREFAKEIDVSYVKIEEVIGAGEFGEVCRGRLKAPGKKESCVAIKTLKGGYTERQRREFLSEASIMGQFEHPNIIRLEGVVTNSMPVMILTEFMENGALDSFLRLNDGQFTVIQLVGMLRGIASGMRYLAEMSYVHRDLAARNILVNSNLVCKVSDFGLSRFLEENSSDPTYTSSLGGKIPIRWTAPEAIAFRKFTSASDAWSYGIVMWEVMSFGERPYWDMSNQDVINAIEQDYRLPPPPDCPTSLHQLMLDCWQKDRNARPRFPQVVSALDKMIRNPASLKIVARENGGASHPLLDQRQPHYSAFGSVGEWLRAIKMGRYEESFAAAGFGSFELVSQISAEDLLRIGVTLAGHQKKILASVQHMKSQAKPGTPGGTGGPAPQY
How it was run: as §1

ULK2(h) = target: T3, ULK2(h) (Homo sapiens, UniProt Q8IYT8)
T3 sequence (Q8IYT8 1-1036): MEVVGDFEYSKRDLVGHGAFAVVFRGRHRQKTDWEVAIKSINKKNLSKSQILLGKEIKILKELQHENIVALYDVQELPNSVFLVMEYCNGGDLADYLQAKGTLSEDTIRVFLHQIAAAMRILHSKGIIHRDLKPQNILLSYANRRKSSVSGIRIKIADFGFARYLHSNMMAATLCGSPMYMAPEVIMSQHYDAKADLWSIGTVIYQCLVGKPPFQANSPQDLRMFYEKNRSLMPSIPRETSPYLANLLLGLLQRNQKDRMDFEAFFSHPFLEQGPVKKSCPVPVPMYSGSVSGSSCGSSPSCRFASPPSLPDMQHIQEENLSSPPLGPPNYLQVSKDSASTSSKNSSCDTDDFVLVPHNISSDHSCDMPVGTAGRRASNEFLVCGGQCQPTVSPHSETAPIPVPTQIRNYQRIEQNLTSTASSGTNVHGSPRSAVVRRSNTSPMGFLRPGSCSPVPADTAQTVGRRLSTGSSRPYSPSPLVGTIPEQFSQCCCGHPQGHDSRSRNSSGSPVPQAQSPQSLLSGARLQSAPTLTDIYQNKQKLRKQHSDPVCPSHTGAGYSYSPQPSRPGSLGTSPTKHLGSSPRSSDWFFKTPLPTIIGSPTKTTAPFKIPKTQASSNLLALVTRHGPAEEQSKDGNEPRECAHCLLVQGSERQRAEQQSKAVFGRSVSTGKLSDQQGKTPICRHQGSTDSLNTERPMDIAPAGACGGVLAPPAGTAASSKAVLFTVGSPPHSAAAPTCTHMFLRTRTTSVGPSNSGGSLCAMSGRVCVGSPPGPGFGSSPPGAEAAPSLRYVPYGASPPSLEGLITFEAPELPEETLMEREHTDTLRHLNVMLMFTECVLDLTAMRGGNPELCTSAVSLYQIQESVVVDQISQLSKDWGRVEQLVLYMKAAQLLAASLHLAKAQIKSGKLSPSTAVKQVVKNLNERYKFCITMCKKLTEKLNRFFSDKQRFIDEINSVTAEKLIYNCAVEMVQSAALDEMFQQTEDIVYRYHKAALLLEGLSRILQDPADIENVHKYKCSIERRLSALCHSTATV
How it was run: as §1

Rsk1(h) = Rsk1(h) (Homo sapiens, UniProt Q15418)
How it was run: as §1

Chain of CDK5/p25(h) (Q00535 whole entry): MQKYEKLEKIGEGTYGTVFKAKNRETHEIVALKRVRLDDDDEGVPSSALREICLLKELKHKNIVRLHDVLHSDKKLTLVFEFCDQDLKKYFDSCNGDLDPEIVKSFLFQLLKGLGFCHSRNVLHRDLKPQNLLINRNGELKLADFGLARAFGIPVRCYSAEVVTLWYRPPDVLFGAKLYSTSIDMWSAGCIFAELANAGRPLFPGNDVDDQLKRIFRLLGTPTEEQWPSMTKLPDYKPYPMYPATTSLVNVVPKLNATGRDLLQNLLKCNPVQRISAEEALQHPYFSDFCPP
Chain of CDK5/p25(h) (Q15078 99-307 partner limits assumed): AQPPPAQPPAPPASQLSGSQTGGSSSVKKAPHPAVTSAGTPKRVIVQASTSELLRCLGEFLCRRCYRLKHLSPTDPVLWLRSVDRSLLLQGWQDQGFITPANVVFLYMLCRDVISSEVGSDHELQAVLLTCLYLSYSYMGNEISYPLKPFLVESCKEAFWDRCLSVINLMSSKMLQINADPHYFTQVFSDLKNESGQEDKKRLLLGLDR
Chain of Rsk1(h) (Q15418 whole entry): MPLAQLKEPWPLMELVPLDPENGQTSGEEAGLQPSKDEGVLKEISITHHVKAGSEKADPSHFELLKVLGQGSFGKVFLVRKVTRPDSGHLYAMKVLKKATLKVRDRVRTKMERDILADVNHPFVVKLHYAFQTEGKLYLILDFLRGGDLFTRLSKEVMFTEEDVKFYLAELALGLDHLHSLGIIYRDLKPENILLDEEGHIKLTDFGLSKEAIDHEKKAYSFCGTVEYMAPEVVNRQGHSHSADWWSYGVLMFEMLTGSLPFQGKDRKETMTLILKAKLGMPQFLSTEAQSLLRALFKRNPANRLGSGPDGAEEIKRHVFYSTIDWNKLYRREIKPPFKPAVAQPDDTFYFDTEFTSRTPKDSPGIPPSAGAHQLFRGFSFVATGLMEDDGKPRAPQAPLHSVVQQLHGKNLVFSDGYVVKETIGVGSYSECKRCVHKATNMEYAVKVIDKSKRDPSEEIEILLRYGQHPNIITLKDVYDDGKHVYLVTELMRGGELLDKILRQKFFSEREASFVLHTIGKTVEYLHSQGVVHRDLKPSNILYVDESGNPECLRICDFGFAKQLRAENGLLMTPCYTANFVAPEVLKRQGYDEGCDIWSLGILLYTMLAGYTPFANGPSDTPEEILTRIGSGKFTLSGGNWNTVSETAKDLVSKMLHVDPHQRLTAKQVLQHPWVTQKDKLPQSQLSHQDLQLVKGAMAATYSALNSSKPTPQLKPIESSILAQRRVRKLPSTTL

Sequence	% activity (PKG1α(h))	% activity (CDK5/p25(h))	% activity (EphB4(h))	% activity (ULK2(h))	% activity (Rsk1(h))
FAKLAARLYRKALARQLGVAA [MMI-0300]	64%	89%	44%	122%	46%
HRRIKAWLKKIKALARQLGVAA (Mammal) [MMI-0500]	25%	66%	38%	124%	34%
KAFAKLAARLYRKALARQLGVAA [MMI-0400]	58%	92%	28%	131%	54%
YARAAARQARAKALARQLGVAA [MMI-0100]	82%	–	62%	123%	86%
YARAAARQARAKALNRQLGVA (Mammal) [MMI-0200]	70%	97%	131%	132%	–
